# Laboratory results reported in CN113388035A (MABWELL SHANGHAI BIOTECHNOLOGY CO LTD; SHANGHAI PUMING …, dated 2021).
# T1: 人IL7 protein (human, UniProt P13232 26-177)
# T1 construct: also called 人IL7蛋白
# T1 sequence (looked up): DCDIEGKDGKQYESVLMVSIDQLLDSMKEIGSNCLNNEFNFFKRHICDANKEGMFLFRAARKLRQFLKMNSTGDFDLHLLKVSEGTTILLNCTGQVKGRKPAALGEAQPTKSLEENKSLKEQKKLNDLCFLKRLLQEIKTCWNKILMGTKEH
# How the values were obtained:
# [1] = biological target: T2, 人TSLP (human thymic stromal lymphopoietin) protein (human, UniProt Q969D9 29-159); experiment: BLI (Fortebio), antibody captured on AMC probe, 100nM TSLP, 1:1 fit
# T2 construct: also called hTSLP; 人TSLP蛋白
# [2] = biological target: T2, 人TSLP (human thymic stromal …); experiment: BLI (Fortebio), method of Example 2, antibody on probe, TSLP in solution
# 人IL7 protein = biological target: T1, 人IL7 protein; experiment: ELISA, IL7 coated at 1ug/ml, HRP-goat anti-human IgG
# [3] = biological target: T2, 人TSLP (human thymic stromal …); experiment: BLI (Fortebio), method of Example 2, antibody on probe, TSLP in solution; remark: listed apart in the source
Kd [1] [nM],koff [1] [s⁻¹],kon [1] [M⁻¹ s⁻¹],Kd [2] [nM],koff [2] [s⁻¹],kon [2] [M⁻¹ s⁻¹],binding result (人IL7 protein),Kd [3] [nM],Response [3],koff [3] [s⁻¹],kon [3] [M⁻¹ s⁻¹],Binder
2.83,0.000225,79600,–,–,–,–,–,–,–,–,"IgG D01 (murine anti-human TSLP monoclonal antibody, clone D01) (antibody, V domains shown, Murine hybridoma IgG, kappa light chain amplified; also called 克隆D01) VH: QVQLQQSGAELVRPGTSVKVSCKASGYAFTNYFIDWVKQRPGQGLEWIGVINPGSGGTNFNEKFKGKATLTADKSSSTAYMQLSSLTSEDSAVYFCARESEVGEGFAYWGQGTLVTVSA VL: DIQMTQTSSSLSASLGDRVTISCRASQDISNYLNWYQQKPDGTVKLLIYYTSTLHSGVPSRFSGSGSGTDYSLTISNLEQEDIATYFCQQGNTLPYTFGGGTKLEIK"
–,–,–,0.985,0.000356,361000,–,–,–,–,–,"xiD01 (anti-human TSLP chimeric antibody) (antibody, human IgG2, V domains shown, also called 抗人TSLP嵌合抗体蛋白xiD01; not shown: human kappa light chain constant region) VH: QVQLQQSGAELVRPGTSVKVSCKASGYAFTNYFIDWVKQRPGQGLEWIGVINPGSGGTNFNEKFKGKATLTADKSSSTAYMQLSSLTSEDSAVYFCARESEVGEGFAYWGQGTLVTVSA VL: DIQMTQTSSSLSASLGDRVTISCRASQDISNYLNWYQQKPDGTVKLLIYYTSTLHSGVPSRFSGSGSGTDYSLTISNLEQEDIATYFCQQGNTLPYTFGGGTKLEIK"

# Further lines, the binder ahead of its results:
Binder,Kd [1] [nM],koff [1] [s⁻¹],kon [1] [M⁻¹ s⁻¹],Kd [2] [nM],koff [2] [s⁻¹],kon [2] [M⁻¹ s⁻¹],binding result (人IL7 protein),Kd [3] [nM],Response [3],koff [3] [s⁻¹],kon [3] [M⁻¹ s⁻¹]
"hzD01Hm5Lm4 (humanized, affinity-matured anti-human TSLP antibody) (antibody, human IgG2, V domains shown, not shown: human kappa light chain constant region) VH: EVQLVQSGAEVKKPGASVKVSCKASGYTFTNYFIDWVRQAPGQGLEWIGVIDAFSGGSNFNEKFKGRVTMTRDTSTSTAYMELSSLRSEDTAVYFCARESEVGEGFAYWGQGTLVTVSS VL: DIQMTQSPSSLSASVGDRVTISCRASQDISNYLNWYQQKPGKAPKLLIYYTSTLHSGVPSRFSGSGSGTDYTLTISSLQPEDIATYFCQQGNTLPYTFGQGTKLEIK",–,–,–,–,–,–,no binding,0.0637,0.368,3.98e-05,625000
"hzD01Lm12 (humanized, affinity-matured anti-human TSLP antibody) (antibody, human IgG2, V domains shown, also called hzD01m12; not shown: human kappa light chain constant region) VH: EVQLVQSGAEVKKPGASVKVSCKASGYTFTNYFIDWVRQAPGQGLEWIGVINPGSGGTNFNEKFKGRVTMTRDTSTSTAYMELSSLRSEDTAVYFCARESEVGEGFAYWGQGTLVTVSS VL: DIQMTQSPSSLSASVGDRVTISCRASQDISNYLNWYQQKPGKAPKLLIYYTSTLHSGVPSRFSGSGSGTDYTLTISSLQPEDIATYFCQQFDTLPYPFGQGTKLEIK",–,–,–,–,–,–,no binding,0.0983,0.426,6.08e-05,619000
